Experimental data published in patent publication US20180049457A1, “ENZYMATIC SYNTHESIS OF SOLUBLE GLUCAN FIBER” (E I DU PONT DE NEMOURS AND COMPANY, priority 2014, published 2018).

Assay: GTF activity of strains (PAHBAH assay)
Type: biochemical
Conditions: Experiment Number 2; enzyme expressed in B. subtilis host
Experimental: GTF activity of the strains was analyzed by PAHBAH assay in three separate experiments. Due to minor variations between the expeirments, Table 2 lists the activity of the truncated enzymes in the B. subtilis host along with the experiment in which the activity was measured. Most of the T1, T2, and T6 truncations decreased the activity of the enzymes, whereas the T4 and T5 C-terminal truncations retained similar activity relative to the respective N terminal-only truncations (NT). […] To identify specific amino acid residues within the catalytic domain that may be involved in producing the soluble α-glucan fiber, we analyzed the crystal structures (PDB Identifiers: 3AIB, 3AIC, and 3HZ3) of the catalytic domains of three glucosyltransferases to identify residues within 8 Angstroms of the bound ligand. 57 residues met that criterion. A motif was generated based on the corresponding 57 amino acids in GTF0459 and each of the identified homologs. The motif was then used to generate a consensus sequence to capture the variability in the catalytic domains of GTF0459 and the identified homologs. The consensus sequence is provided as SEQ ID NO: 153.

B1: GTF4336T5: T5 C-terminal truncation of GTF4336, SEQ ID NO: 120, strain SG1319 (protein)
chain: INGKQYYVNSDGSVRKNFVFEQDGKSYYFDAETGALATKSQDEFSTEPIKATVDFSSGNQLYKNDDKSLDQLDTFITADAWYRPKSILKDGKTWTASTEADKRPLLMVWWPDKSTQVNYLNYMQNQGLGAGSFSTNSSQESLDQAAKAVQTKIEERIAREGNTNWLRTSIDQFIKTQPGWNSSTENSSYDHLQGGQLLFNNSKGDTGNRTSHANSDYRLLNRTPTNQTGTRKYFKDNSIGGLEFLLANDIDNSNPAVQAEQLNWLHFMMNIGSIMANDPTANFDGLRVDALDNVDADLLQIASDYFKAAYGVDKSEANAIKHLSYLEAWSANDPYYNKDTKGAQLPIDNALRNALTNLLMRDKNTRMQLGDMTAFINSSLNPRGANDKNGERMANYIFTRAHDTEAQTIIQRIIRDRINPNLFGYNFTRDEIKKAFEIYNEDIDKAHKTYASYNLPSVYALMLTNKDSVTRVYYGDLYREDGHYMAKKTPYFDAIDTLLRARIKYVAGGQDMEVKKVGNDGLLTSVRYGKGANNRTDLGTSETRTQGMGVIMTNNYDFRLGSNETVTMNMGRAHRNQLYRPLLLTTKDGIATYFNDSDVPKNLLKRTDWNGNLTFNANDVFGVENVQVSGYLGVWVPVGAKANQDARTQPSNRANSDGQVYKSSAALDSQVMYEAFSNFQAFADDQPELYMNRVLAKNTDLLKAWGVTSVGLPPQYVSSKDGTFLDSTIDNGYAFDDRYDMALSQNNKYGSLEDLLNVLRALHKDGIQAIADWVPDQIYNLPGKEVVNATRVNGYGYHQQGYQIVDQAYVANTRTDGTDYQGKYGGAFLDELKAKYPSIFNRVQISNGKQLPTNEKITKWSAKYFNGTNILGRGINYVLRDDKTNQYFNTSANSQLLPTPLRDTGAITSTQVFQRRGQDVYFLRDNQAVKNEFVQDGNGNWYYFGADGKMTKGAQTINKKDYYFFDNGIQLRNALRRANNGYTYYYGLDGAMVKNAFVDFDDKRKQ
modifications: T5 C-terminal truncation of GTF4336
Which “GTF activity of strains: Acitivity” value does the source give for B1 here?
The value was 43.6 U/mL.
